Measurements from patent US20250179160A1 (OMEROS, published 2025).

What was measured:
[1] = biological target: T1, recombinant human mature Factor D (human, UniProt P00746 26-253); assay: sandwich ELISA: coat 3C5 (human IgG4), sample titrated (ug/ml Df), detection 14A11 (mouse IgG2a), HRP donkey anti-mouse IgG; OD450
T1 construct: also called mature CFD; hCFD
Source text: (§1) An HRP-labeled F(ab′)₂ fragment donkey anti-mouse IgG H&L antibody (Jackson ImmunoResearch) was used to signal the detection antibody, followed by development with TMB substrate (ThermoFisher).

[2] = biological target: T1, recombinant human mature Factor D; assay: sandwich ELISA: coat 12H10 (human IgG4), sample titrated (ug/ml Df), detection 14A11 (mouse IgG2a), HRP donkey anti-mouse IgG; OD450
Source text: as §1

[3] = biological target: T2, recombinant cynomolgus mature Factor D (cynomolgus monkey); assay: as above
T2 construct: mature; not tied by words to this reagent; also called cy Mat CFD; cynomolgus recombinant mature Factor D
Source text: as §1

[4] = biological target: T1, recombinant human mature Factor D; assay: sandwich ELISA: coat 3C5 (human IgG4) 3 ug/mL, sample in 3-fold dilutions (ug/ml Df), detection 14A11 (mouse IgG2a) 3 ug/mL, HRP donkey anti-mouse IgG; OD450
Procedure: as §1
(§2) Wells were then washed three times. […] The plates were washed three times. 100 μL of Horseradish Peroxidase labeled F(ab′)2 Fragment Donkey anti-Mouse IgG H&L antibody (Jackson ImmunoResearch), diluted 1:30,000, was added to each well and incubated for one hour at room temperature. Wells were then washed three times.

[5] = biological target: T2, recombinant cynomolgus mature Factor D; assay: as above
Procedure: as §1, §2

[6] = biological target: T3, purified (from human plasma) human Factor D (human, UniProt P00746 26-253); assay: as above
T3 construct: also called hu purif; CFD; purified human complement factor D (Complement Technologies)
Procedure: as §1, §2

[7] = biological target: T2, recombinant cynomolgus mature Factor D; assay: sandwich ELISA standard curve: coat 3C5 (human IgG4) 3 ug/mL, recombinant cynomolgus mature Factor D titrated, detection 14A11 3 ug/mL, HRP donkey anti-mouse IgG; OD450
Source text: After washing, an HRP-labeled secondary antibody (HRP-labeled F(ab′)2 Fragment Donkey anti-Mouse IgG H&L antibody (Jackson ImmunoResearch)) was used to signal the detection antibody, followed by development with TMB (ThermoFisher). Samples were interpolated from a 4-parameter logistics curve of cynomolgus recombinant mature Factor D dilutions.

[8] = biological target: T4, recombinant human Pro-Factor D (human, UniProt P00746 20-253); assay: sandwich ELISA: coat goat polyclonal AF1824; 2 ug/mL recombinant CFD spiked into buffer or 10% Factor D-depleted serum; detection with 14A11 hybridoma supernatant diluted in half, HRP goat anti-mouse IgG Fc; OD450
T4 construct: also used for the endogenous pro-Factor D detected in 3MC patient serum; also called pro CFD; hPro-CFD
Procedure: ELISA plates were coated overnight at 4° C. with polyclonal goat anti-human CFD AF1824 (R&D Systems). Plate wells were washed, blocked, and washed again. Normal human serum pool, normal human plasma pool or Factor D-depleted human serum were diluted 10-fold in assay buffer (PBS with 1% BSA and 0.05% Tween 20, PBST-BSA), either un-spiked or spiked with 2 μg/mL recombinant pro-(pro CFD) or mature-factor D (mature CFD). These matrices, including a buffer control with or without recombinant protein spiked in, were incubated for 60 minutes at room temperature, and then washed. […] The detection antibodies were incubated for one hour at room temperature and washed, then developed with a horseradish peroxidase (HRP)-labeled goat polyclonal to mouse IgG Fc (Jackson ImmunoResearch).

Row | Binder | EC50 (read off the curve) [1] | EC50 (read off the curve) [2] | EC50 (read off the curve) [3] | EC50 (read off the curve) [4] | EC50 (read off the curve) [5] | EC50 (read off the curve) [6] | EC50 (read off the curve) [7] | binding result [8]
1 | 14A11, mouse IgG2a Fc version (antibody, Recombinant, mouse IgG2a and mouse kappa constant regions; also called mAb 14A11; detection antibody 14A11 (anti-human/cyno mature-Factor D-specific)) heavy: QITLKESGPGILQSSQTLSLTCSFSGVSLTTSGMGVSWIRQPSGKGLEWLAHIYWDDEKHYHPSLKSRLTISKDASRNQVFFRILSVDTADTATYYCALRYYGYRSFMDYWGQGTSVTVSSAKTTAPSVYPLAPVCGDTTGSSVTLGCLVKGYFPEPVTLTWNSGSLSSGVHTFPAVLQSDLYTLSSSVTVTSSTWPSQSITCNVAHPASSTKVDKKIEPRGPTIKPCPPCKCPAPNLLGGPSVFIFPPKIKDVLMISLSPIVTCVVVDVSEDDPDVQISWFVNNVEVHTAQTQTHREDYNSTLRVVSALPIQHQDWMSGKEFKCKVNNKDLPAPIERTISKPKGSVRAPQVYVLPPPEEEMTKKQVTLTCMVTDFMPEDIYVEWTNNGKTELNYKNTEPVLDSDGSYFMYSKLRVEKKNWVERNSYSCSVVHEGLHNHHTTKSFSRTPGK light: DVLMTQSPLSLPVSLGDQASIFCRSNQSIVHSNGNTYFEWYLQKPGQSPKLLIYKVSNRFSGVPDRFSGSGSGTDFTLRISRVEAEDLGIYYCFQGSHVPPTFGGGTKLEIKRADAAPTVSIFPPSSEQLTSGGASVVCFLNNFYPKDINVKWKIDGSERQNGVLNSWTDQDSKDSTYSMSSTLTLTKDEYERHNSYTCEATHKTSTSPIVKSFNRNEC | ~0.02 µg/mL | ~0.04 µg/mL | ~0.08 µg/mL | ~0.03 µg/mL | ~0.06 µg/mL | ~0.04 µg/mL | ~0.06 µg/mL | –
2 | 14A11, hybridoma supernatant (antibody, V domains shown, Mouse hybridoma antibody) VH: QITLKESGPGILQSSQTLSLTCSFSGVSLTTSGMGVSWIRQPSGKGLEWLAHIYWDDEKHYHPSLKSRLTISKDASRNQVFFRILSVDTADTATYYCALRYYGYRSFMDYWGQGTSVTVSS VL: DVLMTQSPLSLPVSLGDQASIFCRSNQSIVHSNGNTYFEWYLQKPGQSPKLLIYKVSNRFSGVPDRFSGSGSGTDFTLRISRVEAEDLGIYYCFQGSHVPPTFGGGTKLEIKR | – | – | – | – | – | – | – | no binding
